Assay results taken from patent US20240261333A1, “NOVEL TARGETS FOR ENHANCING ANTI-TUMOR IMMUNITY” (THE BROAD INSTITUTE, INC., priority 2021, published 2024).

Legend:
[1] = molecular target: TAF15 (human) (UniProt Q92804); assay: IgG control IP from lysate of cells overexpressing C-FLAG B3GNT2, then mass spectrometry
[2] = molecular target: PABPC1 (human) (UniProt P11940); assay: as above
[3] = molecular target: VIM (human) (UniProt P08670); assay: as above
[4] = molecular target: MAGED2 (human) (UniProt Q9UNF1); assay: as above
[5] = molecular target: CASC3 (human) (UniProt O15234); assay: as above
[6] = molecular target: TIMP3 (human) (UniProt P35625); assay: as above
[7] = molecular target: ANXA2 (human) (UniProt P07355); assay: as above
[8] = molecular target: TCP1 (human) (UniProt P17987); assay: as above
[9] = molecular target: GSN (human) (UniProt P06396); assay: control IP with IgG, lysate of cells with C-FLAG B3GNT2, mass spectrometry
[10] = molecular target: DHX9 (human) (UniProt Q08211); assay: as above
[11] = molecular target: RPS26 (human) (UniProt P62854); assay: as above
[12] = molecular target: FLG (human) (UniProt P20930); assay: as above
[13] = molecular target: CHCHD3 (human) (UniProt Q9NX63); assay: as above
[14] = molecular target: RPL23 (human) (UniProt P62829); assay: as above
[15] = molecular target: RACK1 (human) (UniProt P63244); assay: as above
[16] = molecular target: LCN1 (human) (UniProt P31025); assay: as above
[17] = molecular target: LGALS7B (human) (UniProt P47929); assay: as above
[18] = molecular target: DDX1 (human) (UniProt Q92499); assay: as above
[19] = molecular target: RHOT2 (human) (UniProt Q8IXI1); assay: as above
[20] = molecular target: RPL7 (human) (UniProt P18124); assay: as above
[21] = molecular target: MAP4 (human) (UniProt P27816); assay: as above
[22] = molecular target: CALML5 (human) (UniProt Q9NZT1); assay: as above
[23] = molecular target: PPFIBP1 (human) (UniProt Q86W92); assay: as above
[24] = molecular target: SYNM (human) (UniProt O15061); assay: as above
[25] = molecular target: RPL28 (human) (UniProt P46779); assay: as above
[26] = molecular target: KCTD5 (human) (UniProt Q9NXV2); assay: as above
[27] = molecular target: RPL8 (human) (UniProt P62917); assay: as above
[28] = molecular target: EMILIN1 (human) (UniProt Q9Y6C2); assay: as above
[29] = molecular target: HNRNPM (human) (UniProt P52272); assay: as above
[30] = molecular target: IMMT (human) (UniProt Q16891); assay: as above
[31] = molecular target: T1, YTHDF2 (human) (UniProt Q9Y5A9); assay: as above
T1 sequence (looked up): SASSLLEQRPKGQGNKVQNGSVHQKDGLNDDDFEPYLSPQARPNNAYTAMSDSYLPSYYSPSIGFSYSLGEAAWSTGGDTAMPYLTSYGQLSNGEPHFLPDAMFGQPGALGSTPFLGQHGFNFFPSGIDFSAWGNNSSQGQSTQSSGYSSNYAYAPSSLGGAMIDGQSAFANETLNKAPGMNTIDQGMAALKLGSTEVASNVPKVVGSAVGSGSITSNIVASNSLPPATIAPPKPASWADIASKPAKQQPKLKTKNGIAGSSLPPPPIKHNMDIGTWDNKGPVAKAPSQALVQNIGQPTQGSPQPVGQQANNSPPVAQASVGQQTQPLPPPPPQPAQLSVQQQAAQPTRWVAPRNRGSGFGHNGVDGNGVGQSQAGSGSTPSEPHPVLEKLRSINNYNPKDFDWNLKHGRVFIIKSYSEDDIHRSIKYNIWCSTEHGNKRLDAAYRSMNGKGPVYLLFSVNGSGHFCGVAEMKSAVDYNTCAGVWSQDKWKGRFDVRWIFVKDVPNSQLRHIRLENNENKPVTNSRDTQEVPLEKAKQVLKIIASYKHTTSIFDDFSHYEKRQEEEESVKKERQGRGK

[32] = molecular target: TELO2 (human) (UniProt Q9Y4R8); assay: as above

Chain of ANXA2 (human) (P07355 other isoform, or with tags, fused parts or gaps limits assumed): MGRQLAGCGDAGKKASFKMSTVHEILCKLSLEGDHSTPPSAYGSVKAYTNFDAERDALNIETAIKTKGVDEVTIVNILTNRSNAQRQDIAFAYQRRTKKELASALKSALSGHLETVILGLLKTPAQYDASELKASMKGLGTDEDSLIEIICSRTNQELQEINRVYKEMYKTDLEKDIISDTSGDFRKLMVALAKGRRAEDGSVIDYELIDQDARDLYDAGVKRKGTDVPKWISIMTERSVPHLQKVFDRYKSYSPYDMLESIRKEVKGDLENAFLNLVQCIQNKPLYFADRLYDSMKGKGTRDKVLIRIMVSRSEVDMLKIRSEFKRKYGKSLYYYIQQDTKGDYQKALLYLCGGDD
Chain of DHX9 (human) (Q08211 whole entry): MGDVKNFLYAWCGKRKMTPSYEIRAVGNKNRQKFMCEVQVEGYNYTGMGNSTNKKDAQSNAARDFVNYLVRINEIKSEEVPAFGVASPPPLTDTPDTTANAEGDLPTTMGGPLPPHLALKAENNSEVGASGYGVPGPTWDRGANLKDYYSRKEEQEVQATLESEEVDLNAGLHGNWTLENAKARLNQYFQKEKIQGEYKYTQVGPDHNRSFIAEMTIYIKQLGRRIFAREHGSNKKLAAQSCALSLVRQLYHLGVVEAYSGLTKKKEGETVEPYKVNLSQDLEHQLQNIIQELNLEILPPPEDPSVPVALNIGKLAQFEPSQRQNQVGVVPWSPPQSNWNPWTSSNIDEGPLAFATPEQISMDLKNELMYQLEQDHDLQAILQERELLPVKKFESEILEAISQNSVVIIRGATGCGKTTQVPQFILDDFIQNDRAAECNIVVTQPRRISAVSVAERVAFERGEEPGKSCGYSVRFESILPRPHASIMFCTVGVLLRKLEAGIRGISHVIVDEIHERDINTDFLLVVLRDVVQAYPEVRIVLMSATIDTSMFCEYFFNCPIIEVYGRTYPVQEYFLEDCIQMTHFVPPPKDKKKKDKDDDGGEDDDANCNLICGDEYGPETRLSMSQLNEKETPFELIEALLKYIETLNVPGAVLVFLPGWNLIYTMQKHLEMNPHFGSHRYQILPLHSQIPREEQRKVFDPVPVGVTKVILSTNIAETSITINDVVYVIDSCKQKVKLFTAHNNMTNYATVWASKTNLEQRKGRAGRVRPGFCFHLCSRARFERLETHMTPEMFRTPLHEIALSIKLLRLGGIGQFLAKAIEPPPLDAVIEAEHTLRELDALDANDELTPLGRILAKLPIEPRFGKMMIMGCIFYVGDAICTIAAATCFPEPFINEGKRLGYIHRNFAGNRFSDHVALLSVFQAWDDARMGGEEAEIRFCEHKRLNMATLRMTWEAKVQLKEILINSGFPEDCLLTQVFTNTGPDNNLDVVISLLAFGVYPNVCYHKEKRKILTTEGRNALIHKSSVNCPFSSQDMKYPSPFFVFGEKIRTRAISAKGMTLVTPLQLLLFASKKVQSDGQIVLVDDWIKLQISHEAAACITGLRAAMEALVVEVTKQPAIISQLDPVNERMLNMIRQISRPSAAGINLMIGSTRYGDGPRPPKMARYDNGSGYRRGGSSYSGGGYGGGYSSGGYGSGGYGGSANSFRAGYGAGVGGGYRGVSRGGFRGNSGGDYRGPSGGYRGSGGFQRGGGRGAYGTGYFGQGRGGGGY
Chain of GSN (human) (P06396 28-782 limits assumed): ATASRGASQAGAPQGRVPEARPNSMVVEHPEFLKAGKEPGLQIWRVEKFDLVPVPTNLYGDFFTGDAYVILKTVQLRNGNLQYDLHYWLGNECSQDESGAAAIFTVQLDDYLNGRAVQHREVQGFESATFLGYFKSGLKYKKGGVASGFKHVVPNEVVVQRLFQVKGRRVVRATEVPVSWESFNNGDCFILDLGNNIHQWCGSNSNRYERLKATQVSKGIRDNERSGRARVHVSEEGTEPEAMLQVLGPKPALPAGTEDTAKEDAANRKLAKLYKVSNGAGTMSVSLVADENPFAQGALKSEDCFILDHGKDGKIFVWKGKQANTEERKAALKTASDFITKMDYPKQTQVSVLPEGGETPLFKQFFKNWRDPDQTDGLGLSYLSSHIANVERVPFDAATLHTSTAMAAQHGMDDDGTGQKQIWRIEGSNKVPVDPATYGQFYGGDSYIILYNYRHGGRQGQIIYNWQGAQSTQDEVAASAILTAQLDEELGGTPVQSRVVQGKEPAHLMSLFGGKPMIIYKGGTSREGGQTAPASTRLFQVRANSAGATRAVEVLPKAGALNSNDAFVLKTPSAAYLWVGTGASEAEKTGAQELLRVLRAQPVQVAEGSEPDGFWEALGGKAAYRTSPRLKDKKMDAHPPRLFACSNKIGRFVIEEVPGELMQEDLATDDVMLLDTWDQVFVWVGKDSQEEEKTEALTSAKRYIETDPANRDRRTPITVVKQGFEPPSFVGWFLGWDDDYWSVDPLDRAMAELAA
Chain of VIM (human) (P08670 2-466 limits assumed): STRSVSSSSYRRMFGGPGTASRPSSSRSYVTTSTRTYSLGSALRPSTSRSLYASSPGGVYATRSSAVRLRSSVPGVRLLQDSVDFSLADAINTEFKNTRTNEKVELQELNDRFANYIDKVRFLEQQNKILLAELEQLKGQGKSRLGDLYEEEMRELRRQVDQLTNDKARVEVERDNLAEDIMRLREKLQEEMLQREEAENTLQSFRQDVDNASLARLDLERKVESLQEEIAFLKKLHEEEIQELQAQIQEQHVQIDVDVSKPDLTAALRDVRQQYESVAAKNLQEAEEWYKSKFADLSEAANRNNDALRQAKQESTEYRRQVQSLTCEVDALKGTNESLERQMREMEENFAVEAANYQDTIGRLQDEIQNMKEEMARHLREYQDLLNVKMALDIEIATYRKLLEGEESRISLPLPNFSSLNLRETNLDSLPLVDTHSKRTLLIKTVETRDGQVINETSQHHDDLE
Chain of TIMP3 (human) (P35625 24-211 limits assumed): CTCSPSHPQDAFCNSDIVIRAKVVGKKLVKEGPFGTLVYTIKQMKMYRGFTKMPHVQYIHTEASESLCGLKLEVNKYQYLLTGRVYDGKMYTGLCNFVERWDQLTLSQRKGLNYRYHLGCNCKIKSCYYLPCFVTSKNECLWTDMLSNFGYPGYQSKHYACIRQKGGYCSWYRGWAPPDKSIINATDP
Chain of MAGED2 (human) (Q9UNF1 2-606 limits assumed): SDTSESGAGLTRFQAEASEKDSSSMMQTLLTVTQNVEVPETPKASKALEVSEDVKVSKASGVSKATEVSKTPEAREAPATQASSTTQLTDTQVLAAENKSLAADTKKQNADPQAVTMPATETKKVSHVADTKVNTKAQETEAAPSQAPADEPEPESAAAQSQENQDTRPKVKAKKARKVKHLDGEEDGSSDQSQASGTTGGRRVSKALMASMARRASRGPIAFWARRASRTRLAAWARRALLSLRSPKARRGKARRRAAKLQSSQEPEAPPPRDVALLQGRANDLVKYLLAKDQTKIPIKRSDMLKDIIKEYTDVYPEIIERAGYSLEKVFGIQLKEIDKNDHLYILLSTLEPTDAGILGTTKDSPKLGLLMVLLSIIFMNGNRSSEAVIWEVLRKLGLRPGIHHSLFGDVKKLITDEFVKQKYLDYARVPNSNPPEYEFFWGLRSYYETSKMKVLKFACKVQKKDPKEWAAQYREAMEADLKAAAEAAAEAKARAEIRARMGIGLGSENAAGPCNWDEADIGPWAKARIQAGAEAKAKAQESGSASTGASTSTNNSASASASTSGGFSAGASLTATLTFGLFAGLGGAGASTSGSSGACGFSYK
Chain of PPFIBP1 (human) (Q86W92 other isoform, or with tags, fused parts or gaps limits assumed): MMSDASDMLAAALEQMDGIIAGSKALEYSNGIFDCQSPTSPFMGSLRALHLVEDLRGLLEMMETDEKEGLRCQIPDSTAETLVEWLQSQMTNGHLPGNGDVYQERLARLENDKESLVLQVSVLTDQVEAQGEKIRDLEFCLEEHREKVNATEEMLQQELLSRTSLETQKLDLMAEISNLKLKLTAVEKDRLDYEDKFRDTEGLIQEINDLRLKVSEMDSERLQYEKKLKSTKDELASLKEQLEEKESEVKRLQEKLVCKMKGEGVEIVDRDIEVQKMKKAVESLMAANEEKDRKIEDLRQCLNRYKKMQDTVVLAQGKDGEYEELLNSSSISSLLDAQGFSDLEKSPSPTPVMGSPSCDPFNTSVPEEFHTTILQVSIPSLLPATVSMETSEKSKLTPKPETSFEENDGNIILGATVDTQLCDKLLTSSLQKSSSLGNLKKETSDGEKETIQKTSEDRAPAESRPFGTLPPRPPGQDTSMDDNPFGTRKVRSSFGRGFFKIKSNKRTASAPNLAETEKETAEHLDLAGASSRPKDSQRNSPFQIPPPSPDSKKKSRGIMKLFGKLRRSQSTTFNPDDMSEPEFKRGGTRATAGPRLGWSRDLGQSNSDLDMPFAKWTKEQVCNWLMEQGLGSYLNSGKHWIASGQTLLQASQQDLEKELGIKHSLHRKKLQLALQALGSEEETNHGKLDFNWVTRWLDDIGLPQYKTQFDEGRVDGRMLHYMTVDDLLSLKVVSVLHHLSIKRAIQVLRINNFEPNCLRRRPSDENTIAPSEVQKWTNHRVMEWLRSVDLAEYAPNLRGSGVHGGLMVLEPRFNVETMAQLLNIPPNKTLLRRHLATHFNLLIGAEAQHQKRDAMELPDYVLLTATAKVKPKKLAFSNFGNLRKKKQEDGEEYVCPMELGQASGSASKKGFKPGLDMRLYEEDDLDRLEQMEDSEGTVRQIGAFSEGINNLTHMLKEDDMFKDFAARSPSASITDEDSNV
Chain of KCTD5 (human) (Q9NXV2 2-234 limits assumed): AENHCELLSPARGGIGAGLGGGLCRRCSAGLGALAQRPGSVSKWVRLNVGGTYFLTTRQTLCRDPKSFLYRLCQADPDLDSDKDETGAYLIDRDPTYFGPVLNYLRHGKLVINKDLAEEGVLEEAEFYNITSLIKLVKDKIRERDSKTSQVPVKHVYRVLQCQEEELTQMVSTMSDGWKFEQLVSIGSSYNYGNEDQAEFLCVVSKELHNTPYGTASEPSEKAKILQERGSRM
Chain of CALML5 (human) (Q9NZT1 2-146 limits assumed): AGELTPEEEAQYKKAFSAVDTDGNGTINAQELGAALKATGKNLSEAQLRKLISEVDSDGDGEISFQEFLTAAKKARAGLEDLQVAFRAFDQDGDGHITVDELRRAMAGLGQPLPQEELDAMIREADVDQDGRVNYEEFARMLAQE

**Q.** “IgG control (Millipore Sigma 12-371) (antibody)” was tested. Which co-IP mass spectrometry count (C-term IgG) [1] did it give?
**A.** The co-IP mass spectrometry count (C-term IgG) was 4.

**Q.** And the co-IP mass spectrometry count (C-term IgG) [2]?
**A.** The co-IP mass spectrometry count (C-term IgG) was 30.

**Q.** And the co-IP mass spectrometry count (C-term IgG) [3]?
**A.** The co-IP mass spectrometry count (C-term IgG) was 337.

**Q.** And the co-IP mass spectrometry count (C-term IgG) [4]?
**A.** Its co-IP mass spectrometry count (C-term IgG) is 0.

**Q.** And the co-IP mass spectrometry count (C-term IgG) [5]?
**A.** The co-IP mass spectrometry count (C-term IgG) was 0.

**Q.** And the co-IP mass spectrometry count (C-term IgG) [6]?
**A.** Its co-IP mass spectrometry count (C-term IgG) is 0.

**Q.** What about the co-IP mass spectrometry count (C-term IgG) [7] of the same substance?
**A.** Its co-IP mass spectrometry count (C-term IgG) is 16.

**Q.** And the co-IP mass spectrometry count (C-term IgG) [8]?
**A.** The co-IP mass spectrometry count (C-term IgG) was 0.

**Q.** What about the co-IP mass spectrometry count [9] of the same substance?
**A.** Its co-IP mass spectrometry count is 0.

**Q.** What about the co-IP mass spectrometry count [10] of the same substance?
**A.** Its co-IP mass spectrometry count is 0.

**Q.** And the co-IP mass spectrometry count [11]?
**A.** The co-IP mass spectrometry count was 0.

**Q.** What about the co-IP mass spectrometry count [12] of the same substance?
**A.** The co-IP mass spectrometry count was 15.

**Q.** What about the co-IP mass spectrometry count [13] of the same substance?
**A.** The co-IP mass spectrometry count was 11.

**Q.** And the co-IP mass spectrometry count [14]?
**A.** Its co-IP mass spectrometry count is 4.

**Q.** What about the co-IP mass spectrometry count [15] of the same substance?
**A.** Its co-IP mass spectrometry count is 0.

**Q.** And the co-IP mass spectrometry count [16]?
**A.** The co-IP mass spectrometry count was 6.

**Q.** And the co-IP mass spectrometry count [17]?
**A.** Its co-IP mass spectrometry count is 3.

**Q.** And the co-IP mass spectrometry count [18]?
**A.** Its co-IP mass spectrometry count is 5.

**Q.** And the co-IP mass spectrometry count [19]?
**A.** The co-IP mass spectrometry count was 0.

**Q.** And the co-IP mass spectrometry count [20]?
**A.** Its co-IP mass spectrometry count is 3.

**Q.** And the co-IP mass spectrometry count [21]?
**A.** Its co-IP mass spectrometry count is 0.

**Q.** What about the co-IP mass spectrometry count [22] of the same substance?
**A.** The co-IP mass spectrometry count was 0.

**Q.** What about the co-IP mass spectrometry count [23] of the same substance?
**A.** Its co-IP mass spectrometry count is 0.

**Q.** And the co-IP mass spectrometry count [24]?
**A.** The co-IP mass spectrometry count was 2.

**Q.** And the co-IP mass spectrometry count [25]?
**A.** Its co-IP mass spectrometry count is 3.

**Q.** And the co-IP mass spectrometry count [26]?
**A.** Its co-IP mass spectrometry count is 0.

**Q.** What about the co-IP mass spectrometry count [27] of the same substance?
**A.** Its co-IP mass spectrometry count is 3.

**Q.** And the co-IP mass spectrometry count [28]?
**A.** The co-IP mass spectrometry count was 0.

**Q.** And the co-IP mass spectrometry count [29]?
**A.** The co-IP mass spectrometry count was 5.

**Q.** And the co-IP mass spectrometry count [30]?
**A.** Its co-IP mass spectrometry count is 16.

**Q.** What about the co-IP mass spectrometry count [31] of the same substance?
**A.** Its co-IP mass spectrometry count is 2.

**Q.** What about the co-IP mass spectrometry count [32] of the same substance?
**A.** The co-IP mass spectrometry count was 0.
